The target in assay [1] is T1, human IL-25 (human, UniProt Q9H293 33-177).
T1 construct: ELISA used bought R&D systems #1258-IL-025/CF; Treated as one molecule; also called IL-17E; human IL-17E
T1 sequence (looked up): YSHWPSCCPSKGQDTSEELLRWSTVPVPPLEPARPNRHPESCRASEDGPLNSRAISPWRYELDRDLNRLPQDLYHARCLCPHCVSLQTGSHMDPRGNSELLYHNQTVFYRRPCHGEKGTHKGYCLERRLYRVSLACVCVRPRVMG
The assay is described as follows: ELISA, plate coated with human IL-25 (hIl25-HIS), OD450, Example 4; unit from the axis lg(nM) and paragraph 95. How it is done:
MaxiSorp 96-well plates (NUNC #449824, www.thermofisher.com) were coated with 2 μg/ml human IL-25 (R&D systems #1258-IL-025/CF) in 1×PBS (50 μl/well). Plates were incubated at 4° C. overnight. Coating solution was removed and plates were washed once with 200 μl/well PBST (1×PBS with 0.05% tween-20). Then 200 μl/well blocking buffer (1×PBS with 0.05% tween-20, 3% BSA) were added and incubated at room temperature for 1 hour. Blocking buffer was removed and plates were washed three times with 200 μl/well PBST (1×PBS with 0.05% tween-20). Anti-IL-25 antibodies (produced in Example 2) were diluted to 10, 3.33, 1.11, 0.37, 0.123, 0.041, 0.0137, 0.0046, 0.0015, 0.00031, 0.000102, 0.000034 μg/ml by 1×PBS and added to plates (50 μl/well). Plates were incubated at room temperature for 2 hours. Antibodies in the wells were removed and plates were washed three times with 200 μl/well PBST (1×PBS with 0.05% tween-20). Goat anti-human IgG (H&L)-HRP secondary antibody (Jackson Immuno Research #109-035-088, www.jacksonimmuno.com) was diluted 1:5000 in 1×PBS and added to each well (50 μl/well). Plates were incubated at room temperature for 1 hour. Secondary antibody was removed and plates were washed seven times with 200 μl/well PBST (1×PBS with 0.05% tween-20) each time. 50 μl/well TMB (eBioscience #85-00-4201-56, www.ebioscience.com) was added and plates were incubated at room temperature for several minutes. Then 50 μl/well 2N H₂SO₄ was added to stop the reaction. Optical density was measured at 450 nm in relation to human IL-25 binding.
Background: ELISA stands for enzyme-linked immunosorbent assay.

In assay [2] the target is T1, human IL-25. The assay is described as follows: SPR, Biacore T200; antibody captured by anti-human Fc, IL-25 as analyte. As for the experimental part:
Anti-human Fc gamma specific antibody (Jackson Immuno Research, Lot no. 124448, Code. 109-008-098) was immobilized onto the Biacore T200 sensor chip using amine coupling method. Four antibodies secreted to the culture medium plus the parental antibody were injected and captured by anti-human Fc antibody via Fc (capture phase) individually. After equilibration, IL-25 was injected for 300 seconds (association phase) followed by the injection of running buffer for 1200 s (dissociation phase). Responses of reference flow cell (flow cell 1) were subtracted from those of humanized antibodies flow cells during each cycle. The surface was regenerated before the injection of another humanized antibody. The process was repeated until all antibodies are analyzed. The off-rates of humanized antibodies were obtained from fitting the experimental data locally to 1:1 interaction model using the Biacore T200 evaluation software. The antibodies were ranked by their dissociation rate constants (off-rates, Kd). The binders that interact with IL-25 with similar affinity to parental antibody were selected (Table 1).

In a further assay the target is T2, mouse IL-25 (mouse, UniProt Q8VHH8 17-169, limits assumed).
T2 construct: In-house production
T2 sequence (looked up): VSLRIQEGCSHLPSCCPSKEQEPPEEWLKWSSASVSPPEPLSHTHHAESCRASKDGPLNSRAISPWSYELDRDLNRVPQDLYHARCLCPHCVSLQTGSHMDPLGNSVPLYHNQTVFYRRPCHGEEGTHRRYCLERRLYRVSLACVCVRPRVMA
The assay is described as follows: ELISA, plate coated with mouse IL-25, OD450, Example 7; unit from the axis lg(nM) [panel Mouse IL-25].

The next assay concerns the target T3, human IL-17C (human, UniProt Q9P0M4 19-197).
T3 sequence (looked up): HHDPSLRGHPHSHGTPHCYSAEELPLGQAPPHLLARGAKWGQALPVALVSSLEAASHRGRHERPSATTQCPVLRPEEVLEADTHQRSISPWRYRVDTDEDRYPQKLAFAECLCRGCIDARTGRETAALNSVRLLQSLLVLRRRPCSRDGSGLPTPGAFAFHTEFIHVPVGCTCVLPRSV
The assay is described as follows: ELISA, plate coated with 2 µg/ml cytokine. How it is done:
(§1) MaxiSorp 96-well plates (NUNC #449824, www.thermofisher.com) were coated with 2 μg/ml human IL-17A (Cell Signaling #89285F, www.cellsignal.com), human IL-17F (Cell Signaling #8906LC, www.cellsignal.com), human IL-17B (Peprotech #200-28, www.peprotech.com), human IL-17C (R&D systems #1234-IL-025/CF, www.rndsystems.com), human IL-17D ((Peprotech #200-27, www.peprotech.com), human IL-17E (R&D systems #1258-IL-025/CF, www.rndsystems.com) in 1×PBS (50 μl/well) respectively. Plates were incubated at 4° C. overnight. Coating solution was removed and plates were washed once with 200 μl/well PBST (1×PBS with 0.05% tween-20). Then 200 μl/well blocking buffer (1×PBS with 0.05% tween-20, 3% BSA) was added and incubated at room temperature for 1 hour. Blocking buffer was removed and plates were washed three times with 200 μl/well PBST (1×PBS with 0.05% tween-20). The anti-IL-25 antibodies (produced in Example 2), were diluted to 10, 3.33, 1.11, 0.37, 0.123, 0.041, 0.0137, 0.0046, 0.0015, 0.00031, 0.000102, 0.000034 μg/ml by 1×PBS and added to the plates (50 μl/well). Plates were incubated at room temperature for 2 hours. Antibodies in the wells were removed and plates were washed three times with 200 μl/well PBST (1×PBS with 0.05% tween-20) each time. Goat anti-human IgG(H&L)-HRP secondary antibody (Jackson Immuno Research #109-035-088, www.jacksonimmuno.com) was diluted 1:5000 in 1×PBS and added to each well (50 μl/well). Plates were incubated at room temperature for 1 hour. Secondary antibody was removed and plates were washed seven times with 200 μl/well PBST (1×PBS with 0.05% tween-20) each time. 50 μl/well TMB (eBioscience #85-00-4201-56, www.ebioscience.com) was added and plates were incubated at room temperature for several minutes. Then 50 μl/well 2N H₂SO₄ was added to stop the reaction. Plates were read at 450 nm.

The target in assay [3] is T1, human IL-25. The assay is described as follows: ELISA, plate coated with 2 µg/ml human IL-17E (IL-25). As for the experimental part:
as §1

The text below walks through data of patent publication US20210332123A1 (SUZHOU KANOVA BIOPHARMACEUTICAL, published 2021).

One may read the EC50 as the concentration giving half of the maximal effect. Low values mean higher potency in that assay, high ones lower potency in that assay. What is called Kd is the constant that tells how readily two partners part at equilibrium. By koff is commonly meant the first-order rate constant of dissociation. A higher koff goes with fast dissociation. For orientation: kon means a measure of how fast the partners come together. Read a high kon as fast association.

B1: murine anti-IL-25 monoclonal antibody 18H3 (antibody, V domains shown)
VH: QVTLKESGPGILQPSQTLSLTCSFSGFSLSTSGMGLGWIRQPSGKGLEWLAHIWWDDVKHYKPALKSRLTISKDISSSQVFLTIASVDTADTATYYCARMGQLHYYGYDYAMDYWGQGTSVTVSS
VL: QIVLTQSPAIMSASPGEKVTISCSASSSVSYMYWYQQKPGSSPKPWIYRTSNLASGVPARFSGSGSGTSYSLTISSMEAEDAATYYCQLYHSYPPTWTFGGGTKLEIK
notes: also called parental antibody; parental murine mAb
For the molecule B1, the concentration giving a half-maximal response (EC50) with human IL-25 [1] came out at 0.187 nM. In addition, in the assay with human IL-25 [2], binding was characterised by a dissociation constant (Kd) of 0.34 nM, the koff was determined as 0.000267 s⁻¹ and the kon was 785000 M⁻¹ s⁻¹. For the same molecule, a half-maximal response in the assay with mouse IL-25 (EC50) required 0.329 nM.

B2: VH1-1 + VL2-1 (humanized anti-IL-25 antibody formed by VH1-1 and VL2-1) (antibody, V domains shown)
VH: QVTLKESGPTLVKPTQTLTLTCTFSGFSLSTSGMGLGWIRQPPGKALEWLAHIWWDDVKHYKPALKSRLTITKDTSKNQVVLTMTNVDPVDTATYYCARMGQLHYYGYDYAMDYWGQGTLVTVSS
VL: DIQLTQSPSFLSASVGDRVTITCSASSSVSYMYWYQQKPGKAPKPLIYRTSNLASGVPSRFSGSGSGTEYTLTISSMQPEDFATYYCQLYHSYPPTWTFGQGTKLEIK
In the assay with human IL-25 [1], B2 had an EC50 of 0.154 nM. Moreover, in the assay with human IL-25 [2], binding was put at a Kd of 0.271 nM, the koff stood at 0.000259 s⁻¹ and the kon was found to be 957000 M⁻¹ s⁻¹. Besides, the binding result with human IL-17C is recorded as “no binding (tested: 10 µg/ml)”. In addition, the response with human IL-25 [3] was half-maximal at 0.15 nM (EC50). In the assay with mouse IL-25, this molecule displayed an EC50 of 0.153 nM.

B3: VH2-1 + VL1-2 (humanized anti-IL-25 antibody formed by VH2-1 and VL1-2) (antibody, V domains shown)
VH: QVTLRESGPALLKPTQTLTLTCTFSGFSLSTSGMGLGWIRQPPGKALEWLAHIWWDDVKHYKPALKSRLTISKDTSKNQVVLTITNVDPVDTATYYCARMGQLHYYGYDYAMDYWGQGTLVTVSS
VL: EIVLTQSPATLSASPGERVTISCSASSSVSYMYWYQQKPGQAPRPLIYRTSNLASGVPARFSGSGSGTDYTLTISSMEPEDFATYYCQLYHSYPPTWTFGQGTKLEIK
B3: the figures for the EC50 in the assay with human IL-25 [1], with human IL-25 [3] and in the assay with mouse IL-25 were 0.196 nM, 0.196 nM and 0.231 nM, respectively. The affinity in the assay with human IL-25 [2], expressed as Kd, was 0.275 nM. In addition, the koff with human IL-25 [2] was determined as 0.000327 s⁻¹. Moreover, in the assay with human IL-25 [2], the kon turned out to be 1.19e+06 M⁻¹ s⁻¹. The binding result with human IL-17C was “no binding (tested: 10 µg/ml)”.

B4: VH1-1 + VL1-2 (humanized anti-IL-25 antibody formed by VH1-1 and VL1-2) (antibody, V domains shown)
VH: QVTLKESGPTLVKPTQTLTLTCTFSGFSLSTSGMGLGWIRQPPGKALEWLAHIWWDDVKHYKPALKSRLTITKDTSKNQVVLTMTNVDPVDTATYYCARMGQLHYYGYDYAMDYWGQGTLVTVSS
VL: EIVLTQSPATLSASPGERVTISCSASSSVSYMYWYQQKPGQAPRPLIYRTSNLASGVPARFSGSGSGTDYTLTISSMEPEDFATYYCQLYHSYPPTWTFGQGTKLEIK
notes: Captured by anti-human Fc gamma antibody in SPR
In the assay with human IL-25 [1], B4 gave a half-maximal effective concentration (EC50) of 0.252 nM. In the assay with human IL-25 [2], this molecule had a Kd of 0.267 nM, a koff of 0.000284 s⁻¹ and a kon of 1.06e+06 M⁻¹ s⁻¹. The binding result in the assay with human IL-17C is listed as “no binding (tested: 10 µg/ml)”. This molecule displayed an EC50 with human IL-25 [3] of 0.25 nM. This molecule yielded an EC50 with mouse IL-25 of 0.242 nM.

B5: VH2-1 + VL2-1 (humanized anti-IL-25 antibody formed by VH2-1 and VL2-1) (antibody, V domains shown)
VH: QVTLRESGPALLKPTQTLTLTCTFSGFSLSTSGMGLGWIRQPPGKALEWLAHIWWDDVKHYKPALKSRLTISKDTSKNQVVLTITNVDPVDTATYYCARMGQLHYYGYDYAMDYWGQGTLVTVSS
VL: DIQLTQSPSFLSASVGDRVTITCSASSSVSYMYWYQQKPGKAPKPLIYRTSNLASGVPSRFSGSGSGTEYTLTISSMQPEDFATYYCQLYHSYPPTWTFGQGTKLEIK
In the assay with human IL-25 [1], B5 displayed an EC50 of 0.187 nM. In addition, in the assay with human IL-25 [2], the Kd worked out at 0.302 nM, the koff came out at 0.000353 s⁻¹ and the on-rate (kon) was found to be 1.17e+06 M⁻¹ s⁻¹. Also, the binding result in the assay with human IL-17C is “no binding (tested: 10 µg/ml)”. The molecule also came in with an EC50 with human IL-25 [3] of 0.187 nM. Further, in the assay with mouse IL-25, the EC50 stood at 0.244 nM.
